T1: carcinoembryonic antigen (CEA) (human, UniProt P06731 35-685)
T1 sequence (looked up): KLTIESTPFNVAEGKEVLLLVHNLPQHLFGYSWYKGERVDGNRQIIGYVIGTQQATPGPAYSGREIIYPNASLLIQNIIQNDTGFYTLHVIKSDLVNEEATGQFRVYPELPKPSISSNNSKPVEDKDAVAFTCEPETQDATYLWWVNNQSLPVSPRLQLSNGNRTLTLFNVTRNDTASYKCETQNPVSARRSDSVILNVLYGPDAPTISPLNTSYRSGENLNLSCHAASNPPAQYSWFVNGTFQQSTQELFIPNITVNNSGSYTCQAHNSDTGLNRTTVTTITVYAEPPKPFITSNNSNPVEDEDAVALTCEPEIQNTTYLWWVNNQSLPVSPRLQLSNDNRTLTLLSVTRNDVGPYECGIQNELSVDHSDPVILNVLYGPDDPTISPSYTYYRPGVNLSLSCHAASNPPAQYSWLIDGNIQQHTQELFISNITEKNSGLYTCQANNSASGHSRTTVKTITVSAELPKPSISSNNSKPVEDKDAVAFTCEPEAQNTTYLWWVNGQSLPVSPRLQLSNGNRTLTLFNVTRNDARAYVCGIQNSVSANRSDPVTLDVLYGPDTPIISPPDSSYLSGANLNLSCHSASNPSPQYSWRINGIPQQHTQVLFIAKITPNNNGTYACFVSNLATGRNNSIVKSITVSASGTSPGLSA


Assays:
[1] = target: T1, carcinoembryonic antigen (CEA); experiment: competition RIA, unlabeled antibody against 125I-mCOL-1 on CEA; modified Scatchard
Method: (§1) Competition RIA: The relative antigen-binding affinity of HuCOL-1, HuCOL-1AbrCDR and HuCOL-1AbrCDR antibodies with framework-substitutions was determined using a competition RIA as described previously (De Pascalis et al., J Immunol., 169:3076-3084, 2002). Twenty-five μl of serial dilutions of the antibodies to be tested, as well as mCOL-1, chimeric COL-1, and HuCOL-1 (positive controls) and HuIgG (negative control), prepared in 1% BSA in PBS, were added to microtiter plates containing 10 ng of […] saturated with 5% BSA in PBS. ¹²⁵I-labeled mCOL-1 (100,000 cpm in 25 μl) was then added to each well. After an overnight incubation at 4° C., the plates were washed and the bound radioactivity was counted in a γ-scintillation counter.
(§2) Competition RIA experiments were performed to determine the relative CEA-binding affinity of chimeric COL-1, HuCOL-1, HuCOL-1AbrCDR, and the different HuCOL-1AbrCDR-derived antibodies. Serial dilutions of unlabeled antibodies were used to compete with the binding of ¹²⁵I-mCOL-1 (FIGS. 4A, 4B and 4C) to CEA.

[2] = target: T1, carcinoembryonic antigen (CEA); experiment: competition RIA against 125I-mCOL-1; reference of the fold not named
Method: as §1, §2

[3] = target: T1, carcinoembryonic antigen (CEA); experiment: competition RIA against 125I-mCOL-1 on CEA; modified Scatchard
Method: as §1, §2

[4] = target: anti-V region antibodies to COL-1 present in the serum of patient one; experiment: SPR competition, serum of patient one; reference HuCOL-1
[5] = target: anti-V region antibodies to COL-1 present in the serum of patient two; experiment: SPR competition, serum of patient two; reference HuCOL-1
[6] = target: anti-V region antibodies to COL-1 present in the serum of patient one; experiment: SPR competition; soluble antibody against immobilized HuCOL-1 for serum anti-V region antibodies
[7] = target: anti-V region antibodies to COL-1 present in the serum of patient two; experiment: as above
[8] = target: anti-V region antibodies to COL-1 present in the serum of patient two; experiment: SPR competition; reference HuCOL-1; lower end tied to serum EM by Table IV (9.7 against 1.9)
[9] = target: anti-V region antibodies to COL-1 present in the serum of patient one; experiment: SPR competition; reference HuCOL-1; upper end tied to serum MB by Table IV (28.5 against 4.9)

| Ka [1] | Fold Difference [2] | Ka [3] | fold higher IC50 than HuCOL-1 [4] | fold higher IC50 than HuCOL-1 [5] | IC50 [6] | IC50 [7] | fold higher IC50 than HuCOL-1 [8] | fold higher IC50 than HuCOL-1 [9] | Binder |
| --- | --- | --- | --- | --- | --- | --- | --- | --- | --- |
| 2.3e+08 M⁻¹ | 1.2 fold | 2.32e+08 M⁻¹ | 1.5 fold | 1.5 fold | 6.9 nM | 2.9 nM | – | – | HuCOL-1AbrCDR (antibody, V domains shown, also called FRV1; HuCOL-1 24,25,27L/61H) VH: EVQLVQSGAEVVKPGASVKMSCKASGFNIKDYYMHWVKQRPEQGLEWIGWIDPENGDTEYAQKFQGKATMTTDTSTSTAYLELSSLRSEDTAVYYCNTRGLSTMITTRWFFDVWGAGTLVTVSS VL: DIVLTQSPASLAVSLGERATINCKSSQSVSASGYSYMHWYQQKPGQPPKLLIYLASNLQSGVPARFSGSGSGTDFTLTISSVQAEDVATYYCQHSRELPTFGGGTKLEIK |
| 3.04e+08 M⁻¹ | 0.9 fold | 3.04e+08 M⁻¹ | – | – | 28.5 nM | 9.7 nM | 5 to 6 fold | 5 to 6 fold | HuCOL-1AbrCDR framework variant 10 (FRV10) (antibody, V domains shown, also called HuCOL-1FRV10) VH: QVQLVQSGAEVKKPGASVKVSCKASGYNIKDYYMHWVRQRPEQGLEWMGWIDPENGDTEYAQKFQGRVTMTTDTSTSTVYMELSSLRSEDTAVYYCNTRGLSTMITTRWFFDVWGAGTLVTVSS VL: DIVLTQSPASLAVSLGERATINCKSSQSVSASGYSYMHWYQQKPGQPPKLLIYLASNLQSGVPARFSGSGSGTDFTLTISSVQAEDVATYYCQHSRELPTFGGGTKLEIK |
